In patent US20220306744A1 (CRESCENDO BIOLOGICS, published 2022):

Tests used:
[1] = molecular target: T1, human PD-1 expressed on cells (CHO TREX human PD1 cell line, full-length human PD-1 sequence) (human, UniProt Q15116 21-288); assay: flow cytometry, PHA-stimulated human CD4+ T cells, Donor 2
T1 construct: Also used for human PD-1 on Jurkat reporter cells, on PathHunter cells and on PHA-stimulated human CD4+ T cells; also called CHO human PD1 cells; CHO human PD-1 cells
Experimental: Binding of monovalent single domain antibodies and multivalent binding agents to T cells was measured using flow cytometry. Peripheral blood mononuclear cells (PBMCs) were isolated from human blood by density gradient centrifugation then CD4+ T cells purified using a negative selection isolation kit according to the manufacturer's protocol (Miltenyi Biotech cat no 130-096-533). T-cells were stimulated with 2.5 μg/ml PHA for 3 days in RPMI media supplemented with 10% FBS, 2 mM Glutamine, 1× Pen/Strep. Cells were transferred into 96 well plates (75000 per well), blocked for 10 mins with PBS/1% BSA, then incubated with serially diluted VH in staining buffer (PBS/1% BSA) for 1 hour at 4° C. Cells were washed with staining buffer by centrifugation then incubated with 10 μg/ml biotinylated Anti His antibody for 40 mins at 4° C. Cells were washed again then stained with Streptavidin Alexa Fluor-488 (10 μg/ml) and 1:5000 diluted Live Dead near IR stain (Molecular Probes cat no. L10119) for 30 mins at 4° C. After further washing cells were fixed and fluorescence measured by flow cytometry.

[2] = molecular target: T2, recombinant human PD-1 Fc chimera (human, UniProt Q15116 25-167); assay: HTRF binding assay, 2 nM recombinant PD1, anti His-D2 and anti human-Fc cryptate
T2 construct: Bought protein (R&D 1086-PD in the HTRF assay); also called human PD-1-hu Fc; huPD-1Fc; not shown: human Fc
Experimental: (§1) Purified VH were tested for their ability to bind to human PD1 (R&D Systems cat no. 1086-PD), cynomolgus PD-1 (Acro Biosystems cat no. PD-1-C5254) and mouse PD1 (R&D Systems cat no. 1021-PD) in an HTRF Binding assay format. All reagents and serially diluted VH were prepared in assay buffer containing PBS, 0.1% BSA and 0.4M Potassium Fluoride. Samples or assay buffer (non-specific binding) were incubated with 2 nM human/cynomolgus or mouse PD1, 1 nM Anti human-Fc Cryptate PAb (Cisbio cat. no. 61HFCKLB) and 30 nM anti His-D2 (CisBio cat no 61HISDLA) in black 384-shallow well assay plates for a minimum of 3 hours at room temperature. Time-resolved fluorescent emission at 620 nm and 665 nm was measured following excitation at 337 nm on the BMG PHERAstar plate reader. The HTRF ratio were calculated ((665 nm emission/620 nm emission)*10000) and the data corrected for (non-specific binding) to give the specific binding signal.

[3] = molecular target: T3, cynomolgus PD-1 recombinant protein (Acro Biosystems cat no. PD-1-C5254) (cynomolgus); assay: as above
T3 construct: Bought protein; also called cyno PD1
Experimental: as §1

[4] = molecular target: T1, human PD-1 expressed on cells (CHO TREX …); assay: epitope competition assay on CHO human PD1 cells (labelled VH 1.51a, 1.57b or 1.1a, not specified) after 0 days in human serum
[5] = molecular target: T1, human PD-1 expressed on cells (CHO TREX …); assay: epitope competition assay on CHO human PD1 cells (labelled VH not specified) after 0 days in human serum

T1 sequence (Q15116 21-288): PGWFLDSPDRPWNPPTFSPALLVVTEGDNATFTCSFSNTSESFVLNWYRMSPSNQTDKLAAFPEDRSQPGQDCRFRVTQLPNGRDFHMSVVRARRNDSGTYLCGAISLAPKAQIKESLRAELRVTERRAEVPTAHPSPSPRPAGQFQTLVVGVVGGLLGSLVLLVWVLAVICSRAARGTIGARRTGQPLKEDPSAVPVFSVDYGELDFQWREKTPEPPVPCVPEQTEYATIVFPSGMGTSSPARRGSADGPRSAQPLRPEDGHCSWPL
T2 sequence (Q15116 25-167 limits assumed, change not shown): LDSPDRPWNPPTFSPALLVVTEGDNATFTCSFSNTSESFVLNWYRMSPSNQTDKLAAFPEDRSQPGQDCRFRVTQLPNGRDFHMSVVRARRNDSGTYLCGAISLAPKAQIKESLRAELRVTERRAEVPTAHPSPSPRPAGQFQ

Row | Binder | EC50 [1] | EC50 [2] | EC50 [3] | IC50 [4] | IC50 [5]
1 | 1.92b-4GS-1.39a (other, Biparatopic VH-linker-VH; built from its parts here because it is not clear whether 1112 is the protein or the nucleic acid) EVQLVESGGGLVKPGGSLRLSCAASGFTFSDESMTWMRQAPGKGLEWVSYISSGGGVKFYADSVKGRFTISRDNAKNSLYLQMNSLRAEDTAVYYCAREAPLRLGESPHDAFDISGQGTMVTVSSGGGGSGGGGSGGGGSGGGGSEVQLVESGGGLVQPGRSLRLSCAASGFTFDDYALHWVRQAPGKDLEWVSGISWNGGSYGYADSVKGRFTISRDNAKNSLYLQMNSLRAEDTALYYCVREKGPGLTGSTADYYGLDAWGQGTMVTVSS | 0.6 nM | 2.1 nM | 3.7 nM | 0.9 nM | 
2 | 1.92b-4GS-1.62a (other, Biparatopic VH-linker-VH; also called 1.92-4GS-1.62a; 1.92b-4gs-2.12a) EVQLVESGGGLVKPGGSLRLSCAASGFTFSDESMTWMRQAPGKGLEWVSYISSGGGVKFYADSVKGRFTISRDNAKNSLYLQMNSLRAEDTAVYYCAREAPLRLGESPHDAFDISGQGTMVTVSSGGGGSGGGGSGGGGSGGGGSEVQLVESGGGVVRPGGSLRLSCAASGFTFDDYAMSWVRQAPGKGLEWVSGITWNAGSTGYADSVKGRFTISRDNAKNSLYLQMNSLRAEDTALYYCVRDKYSYAWSYDDFDIWGQGTMVTVSS | 0.4 nM | 2.1 nM | 3.9 nM |  | 1.4 nM
